According to patent publication US20100260765A1 (AstraZeneca / MedImmune, published 2010):

How the values were obtained:
[1] = target: T1, whole KDR-ECD (Cat. # 676490, Calbiochem) (human, UniProt P35968 20-764); test: ELISA, KDR-ECD coat 5 ug/mL, antibody 0.01 ug/mL
T1 construct: extracellular domain; Bought soluble protein; also called soluble KDR; VEGF Receptor 2 D1-7
Description: (§1) The cross-reactivity of purified antibodies was tested against KDR mouse ortholog KDR mouse ortholog (mouse VEGFR2, or Flk-1) and human VEGFR1 (Flt-1). The ability of the antibodies to bind soluble KDR Ig4-7 domain and to the entire KDR extracellular domain (ECD) was also measured.
(§2) Cross-reactivity experiments were carried out and measured using an ELISA based assay as described in Example 6. […] Antibody controls included IgG1 and IgG4 (Sigma-Aldrich, Cat. #15154 and #14639, respectively).

[2] = target: T2, mouse KDR (Flk-1)/Fc (Cat. #443-KD/CF, R&D Systems, Inc.) (mouse, UniProt P35918 20-762); test: ELISA, Flk-1 coat 5 ug/mL, antibody 0.1 ug/mL
T2 construct: Bought reagent; also called mouse VEGFR2; KDR mouse ortholog; not shown: Fc of the bought fusion protein
T2 sequence (P35918 20-762 limits assumed): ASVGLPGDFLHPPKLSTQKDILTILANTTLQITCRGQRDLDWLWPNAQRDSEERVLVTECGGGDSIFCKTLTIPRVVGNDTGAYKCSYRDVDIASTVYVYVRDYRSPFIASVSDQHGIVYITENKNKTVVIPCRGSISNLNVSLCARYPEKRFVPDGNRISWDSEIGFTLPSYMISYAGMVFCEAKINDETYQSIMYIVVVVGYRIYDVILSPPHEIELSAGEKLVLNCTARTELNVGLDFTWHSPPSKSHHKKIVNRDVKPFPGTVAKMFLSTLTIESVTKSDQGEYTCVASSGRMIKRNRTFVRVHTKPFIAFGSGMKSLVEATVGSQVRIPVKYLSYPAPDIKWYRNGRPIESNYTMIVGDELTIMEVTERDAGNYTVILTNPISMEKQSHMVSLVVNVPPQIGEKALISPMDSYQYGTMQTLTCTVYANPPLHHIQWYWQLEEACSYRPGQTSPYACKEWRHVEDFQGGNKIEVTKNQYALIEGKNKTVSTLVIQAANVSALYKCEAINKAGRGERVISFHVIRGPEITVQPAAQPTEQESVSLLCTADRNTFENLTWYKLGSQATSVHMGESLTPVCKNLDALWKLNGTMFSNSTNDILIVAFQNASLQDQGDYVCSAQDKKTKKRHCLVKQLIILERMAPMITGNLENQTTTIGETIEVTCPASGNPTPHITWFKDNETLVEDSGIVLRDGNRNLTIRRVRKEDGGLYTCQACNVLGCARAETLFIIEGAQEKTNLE
Description: as §1, §2

soluble KDR Ig4-7 domain [3] = target: T3, soluble KDR Ig4-7 domain (human, UniProt P35968 328-764); test: ELISA, KDR Ig4-7 coat (1:1 diln.), antibody 0.1 ug/mL
T3 construct: domain: Ig4-7 domain; also called b-KDRIg4-7-myc-his; Ig4-7 domain of KDR; not shown: myc-his tag of the pSecTag construct
T3 sequence (P35968 328-764): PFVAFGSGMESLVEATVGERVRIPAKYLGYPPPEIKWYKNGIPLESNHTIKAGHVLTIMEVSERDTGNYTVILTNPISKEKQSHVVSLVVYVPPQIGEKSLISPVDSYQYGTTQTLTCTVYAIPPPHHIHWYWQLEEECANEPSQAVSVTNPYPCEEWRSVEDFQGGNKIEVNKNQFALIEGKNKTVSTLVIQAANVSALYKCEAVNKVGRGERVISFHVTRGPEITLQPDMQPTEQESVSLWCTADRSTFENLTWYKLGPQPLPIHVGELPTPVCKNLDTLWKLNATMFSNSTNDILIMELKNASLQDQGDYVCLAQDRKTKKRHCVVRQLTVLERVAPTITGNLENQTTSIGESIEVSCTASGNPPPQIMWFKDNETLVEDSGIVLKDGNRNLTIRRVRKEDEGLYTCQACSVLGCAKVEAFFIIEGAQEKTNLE
Description: as §1, §2

[4] = target: T2, mouse KDR (Flk-1)/Fc (Cat. #443-KD/CF, …); test: ELISA, Flk-1 coat 5 ug/mL, antibody 1 ug/mL
Description: as §1, §2

human KDR [5] = target: T4, human KDR (human, UniProt P35968 20-1356); test: cell-based or functional assay
T4 sequence (P35968 20-1356): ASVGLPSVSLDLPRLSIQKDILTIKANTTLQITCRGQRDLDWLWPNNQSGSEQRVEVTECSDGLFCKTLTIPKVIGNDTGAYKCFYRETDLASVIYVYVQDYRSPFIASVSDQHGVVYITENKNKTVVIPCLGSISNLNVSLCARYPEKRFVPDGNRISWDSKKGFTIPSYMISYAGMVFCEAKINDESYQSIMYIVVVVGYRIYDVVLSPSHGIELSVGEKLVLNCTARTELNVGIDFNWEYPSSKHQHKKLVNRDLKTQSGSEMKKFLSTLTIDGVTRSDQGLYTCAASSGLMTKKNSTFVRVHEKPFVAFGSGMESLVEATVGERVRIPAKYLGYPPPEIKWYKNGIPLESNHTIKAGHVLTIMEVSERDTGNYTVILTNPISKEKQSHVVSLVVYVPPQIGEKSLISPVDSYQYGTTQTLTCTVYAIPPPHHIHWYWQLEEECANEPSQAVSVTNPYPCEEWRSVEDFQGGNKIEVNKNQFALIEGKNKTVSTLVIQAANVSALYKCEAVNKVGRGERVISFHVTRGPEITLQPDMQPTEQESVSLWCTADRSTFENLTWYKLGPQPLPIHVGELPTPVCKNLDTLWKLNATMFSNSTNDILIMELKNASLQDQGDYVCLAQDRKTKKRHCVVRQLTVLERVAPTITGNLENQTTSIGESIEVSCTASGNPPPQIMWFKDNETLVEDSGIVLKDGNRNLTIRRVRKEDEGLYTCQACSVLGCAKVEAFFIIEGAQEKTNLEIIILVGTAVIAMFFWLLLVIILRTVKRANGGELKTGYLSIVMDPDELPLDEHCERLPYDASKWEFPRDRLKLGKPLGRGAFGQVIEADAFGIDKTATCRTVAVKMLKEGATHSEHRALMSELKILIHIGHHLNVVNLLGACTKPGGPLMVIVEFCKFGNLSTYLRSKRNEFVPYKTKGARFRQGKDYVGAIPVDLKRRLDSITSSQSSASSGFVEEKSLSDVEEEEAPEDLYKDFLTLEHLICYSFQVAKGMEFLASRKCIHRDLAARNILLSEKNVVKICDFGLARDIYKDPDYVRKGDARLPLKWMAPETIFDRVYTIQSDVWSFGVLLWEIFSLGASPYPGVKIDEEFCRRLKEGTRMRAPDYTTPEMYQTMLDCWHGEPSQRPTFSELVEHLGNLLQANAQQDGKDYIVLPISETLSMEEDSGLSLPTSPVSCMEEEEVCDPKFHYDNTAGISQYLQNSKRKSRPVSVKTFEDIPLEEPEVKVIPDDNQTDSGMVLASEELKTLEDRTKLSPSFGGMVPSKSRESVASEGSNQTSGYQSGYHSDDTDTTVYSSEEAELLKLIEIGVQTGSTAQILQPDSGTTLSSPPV

human KDR [6] = target: T4, human KDR; test: FACS titration of purified antibody on HUVEC cells (FACS Kd)
Description: The binding affinities of the purified antibodies for endogenously-expressed KDR in HUVEC cells was measured. HUVEC cells were seeded at 150,000 cells/well and incubated with titrations of purified antibody for 4 hours at 4° C. The cells were then washed and incubated with goat anti-human IgG-Fc-Cy5+5 μg/mL 7-Amino-Actinomycin (7AAD) for 30 minutes at 4° C. Bound KDR was detected using FACS analysis.

soluble KDR Ig4-7 domain [7] = target: T3, soluble KDR Ig4-7 domain; test: ELISA, KDR Ig4-7 coat (1:1 diln.), antibody 0.01 ug/mL
Description: as §1, §2

human KDR [8] = target: T4, human KDR; test: cell-based or functional assay; remark: listed apart in the source
[9] = target: T1, whole KDR-ECD (Cat. # 676490, …); test: ELISA, KDR-ECD coat 5 ug/mL, antibody 1 ug/mL
Description: as §1, §2

[10] = target: T2, mouse KDR (Flk-1)/Fc (Cat. #443-KD/CF, …); test: ELISA, Flk-1 coat 5 ug/mL, antibody 0.01 ug/mL
Description: as §1, §2

[11] = target: T1, whole KDR-ECD (Cat. # 676490, …); test: ELISA, KDR-ECD coat 5 ug/mL, antibody 0.1 ug/mL
Description: as §1, §2

soluble KDR Ig4-7 domain [12] = target: T3, soluble KDR Ig4-7 domain; test: ELISA, KDR Ig4-7 coat (1:1 diln.), antibody 1 ug/mL
Description: as §1, §2

human KDR [13] = target: T4, human KDR; test: cell-based or functional assay; remark: listed apart in the source
human KDR [14] = target: T4, human KDR; test: FACS competition on 293T/human KDR transfectants; antibody 5 ug/mL first, then competitor VEGF165 50 ng/mL; inhibition of VEGF binding
Description: (§3) Transfected cells were then seeded at 50,000 cells/well and incubated with 5 μg/mL of candidate antibody for one hour at 4° C. […] After washing, the cells were incubated with Cy5-conjugated rabbit anti-goat antibody plus 7AAD for 15 minutes at 4° C.

cynomolgus KDR = target: T5, cynomolgus KDR (cynomolgus monkey, UniProt A0A2K5VE63 20-1356); test: FACS on Cyno KDR/293T transfectants, antibody 5 ug/mL
T5 construct: whole, on cells; also called Cyno KDR
T5 sequence (A0A2K5VE63 entry or part of it): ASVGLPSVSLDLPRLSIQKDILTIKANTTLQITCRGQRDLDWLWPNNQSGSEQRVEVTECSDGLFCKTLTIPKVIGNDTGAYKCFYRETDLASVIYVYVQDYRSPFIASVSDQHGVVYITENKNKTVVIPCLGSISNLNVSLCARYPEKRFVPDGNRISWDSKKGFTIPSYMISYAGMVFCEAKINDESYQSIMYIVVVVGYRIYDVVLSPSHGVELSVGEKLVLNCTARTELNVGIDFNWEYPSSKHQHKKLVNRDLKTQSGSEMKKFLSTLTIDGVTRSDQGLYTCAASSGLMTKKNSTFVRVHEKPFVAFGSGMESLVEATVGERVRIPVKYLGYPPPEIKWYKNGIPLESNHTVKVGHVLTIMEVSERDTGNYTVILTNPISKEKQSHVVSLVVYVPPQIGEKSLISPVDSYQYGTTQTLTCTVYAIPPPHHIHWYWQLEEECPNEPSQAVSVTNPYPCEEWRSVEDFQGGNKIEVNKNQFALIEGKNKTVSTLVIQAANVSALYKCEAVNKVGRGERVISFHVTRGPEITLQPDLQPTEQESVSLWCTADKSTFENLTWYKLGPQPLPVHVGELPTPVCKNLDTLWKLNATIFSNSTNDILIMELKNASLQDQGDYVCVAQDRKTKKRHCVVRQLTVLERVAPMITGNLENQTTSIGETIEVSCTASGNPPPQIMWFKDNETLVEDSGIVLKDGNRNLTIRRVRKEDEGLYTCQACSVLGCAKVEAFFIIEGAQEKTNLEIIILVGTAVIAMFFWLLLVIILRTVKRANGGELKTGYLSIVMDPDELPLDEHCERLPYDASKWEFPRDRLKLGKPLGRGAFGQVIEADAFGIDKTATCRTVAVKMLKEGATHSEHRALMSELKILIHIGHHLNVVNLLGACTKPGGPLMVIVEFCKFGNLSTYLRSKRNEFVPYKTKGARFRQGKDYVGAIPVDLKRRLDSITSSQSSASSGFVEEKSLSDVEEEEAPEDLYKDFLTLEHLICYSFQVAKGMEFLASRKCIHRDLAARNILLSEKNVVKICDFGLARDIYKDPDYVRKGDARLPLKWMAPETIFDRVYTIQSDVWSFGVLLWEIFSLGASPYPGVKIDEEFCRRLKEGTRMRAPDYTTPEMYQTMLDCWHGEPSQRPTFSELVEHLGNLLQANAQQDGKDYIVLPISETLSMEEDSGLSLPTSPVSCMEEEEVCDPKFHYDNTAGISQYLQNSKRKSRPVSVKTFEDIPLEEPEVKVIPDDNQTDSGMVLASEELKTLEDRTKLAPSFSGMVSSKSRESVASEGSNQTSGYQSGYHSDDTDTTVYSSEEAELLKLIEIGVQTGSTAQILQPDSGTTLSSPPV
Description: The binding of purified antibodies to cell-bound cynomolgus KDR (with parental cells as negative control) was tested by FACS analysis in this assay.
Cynomolgus KDR was cloned in 3 pieces. One piece was PCR amplified from cynomolgus lung cDNA, and the remaining two pieces were PCR amplified from cynomolgus kidney cDNA. The three PCR products were inserted into pCR3.1 Bid vector. […] Transfected cells were seeded at 50,000 cells/well and incubated with 5 μg/mL of candidate antibody for one hour at 4° C. The cells were then washed and incubated with secondary antibody (Cy5-conjugated goat anti-human antibody, or Cy5-conjugated rabbit anti-goat antibody, plus 7-Amino-Actinomycin (7AAD)) for 15 minutes at 4° C. Binding between cynomolgus KDR and purified antibody was detected by FACS analysis.

human KDR [15] = target: T4, human KDR; test: FACS competition on 293T/human KDR transfectants; antibody 5 ug/mL first, then competitor VEGF165 50 ng/mL; bound VEGF165 detected
Description: as §3

T1 sequence (P35968 20-764): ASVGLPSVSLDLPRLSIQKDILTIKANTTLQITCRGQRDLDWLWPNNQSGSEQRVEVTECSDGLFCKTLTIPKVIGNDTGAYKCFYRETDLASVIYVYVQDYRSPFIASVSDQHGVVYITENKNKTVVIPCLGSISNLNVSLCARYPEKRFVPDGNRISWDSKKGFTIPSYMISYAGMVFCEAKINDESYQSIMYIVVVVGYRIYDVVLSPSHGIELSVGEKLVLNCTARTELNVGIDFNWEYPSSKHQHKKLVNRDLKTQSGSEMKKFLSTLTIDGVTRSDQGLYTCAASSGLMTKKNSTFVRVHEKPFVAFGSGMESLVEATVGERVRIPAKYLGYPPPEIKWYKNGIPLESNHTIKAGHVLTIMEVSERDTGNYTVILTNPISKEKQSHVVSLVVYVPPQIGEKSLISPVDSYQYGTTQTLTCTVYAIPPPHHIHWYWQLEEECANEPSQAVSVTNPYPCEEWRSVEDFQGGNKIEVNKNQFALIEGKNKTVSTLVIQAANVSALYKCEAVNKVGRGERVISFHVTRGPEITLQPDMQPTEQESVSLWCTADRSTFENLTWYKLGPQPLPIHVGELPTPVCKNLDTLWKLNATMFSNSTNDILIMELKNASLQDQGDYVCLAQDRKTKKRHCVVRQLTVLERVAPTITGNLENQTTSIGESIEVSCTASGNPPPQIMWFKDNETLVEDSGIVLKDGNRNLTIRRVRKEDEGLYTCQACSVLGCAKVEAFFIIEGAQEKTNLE

ELISA reading [1] | ELISA reading (soluble KDR Ig4-7 domain [3]) | Kd (human KDR [6]) | ELISA reading (soluble KDR Ig4-7 domain [7]) | 6-keto Prostaglandin F1α release, EC50 (nM), Average (human KDR [8]) | 6-keto Prostaglandin F1α release, EC50 (nM), N = 1 (human KDR [8]) | 6-keto Prostaglandin F1α release, EC50 (nM), N = 2 (human KDR [8]) | 6-keto Prostaglandin F1α release, Maximum Inhibition (% Inhibition), Average (human KDR [8]) | ELISA reading [9] | ELISA reading [11] | ELISA reading (soluble KDR Ig4-7 domain [12]) | KDR tyrosine phosphorylation in HUVEC, EC50 (nM), Average (human KDR [13]) | KDR tyrosine phosphorylation in HUVEC, EC50 (nM), N = 1 (human KDR [13]) | KDR tyrosine phosphorylation in HUVEC, EC50 (nM), N = 2 (human KDR [13]) | KDR tyrosine phosphorylation in HUVEC, Maximum Inhibition at 100 nM (% Inhibition), Average (human KDR [13]) | KDR tyrosine phosphorylation in HUVEC, Maximum Inhibition at 100 nM (% Inhibition), N = 1 (human KDR [13]) | KDR tyrosine phosphorylation in HUVEC, Maximum Inhibition at 100 nM (% Inhibition), N = 2 (human KDR [13]) | Binder | HUVEC survival, Maximum Inhibition at 50 nM (% Inhibition), Average (human KDR [5]) | HUVEC survival, Maximum Inhibition at 50 nM (% Inhibition), N = 1 (human KDR [5]) | HUVEC survival, Maximum Inhibition at 50 nM (% Inhibition), N = 2 (human KDR [5]) | also measured
0.103 | 2.31 | 0.2 nM | 0.933 | 23.1 nM | 11.2 nM | 35.1 nM | 42% | 2.36 | 0.307 | 2.65 | 0.6 nM | 0.6 nM | 0.6 nM | 73% | 69% | 77% | 32G7 (antibody, V domains shown, Fully human monoclonal antibody from a XenoMouse hybridoma (IgG2 or IgG4 strain), purified) VH: EVQLVESGGGLVKPGGSLRLSCAASGFTISSYSMNWVRQAPGKGLEWVSFISSRSNYIYYADSVKGRFTISRDNAKNSLYLQMNSLRAEDTAVYYCSKDDWFEELWGQGTLVTVSS VL: DIQMTQSPSSLSASVGDRVTITCRASQDIRNDLGWYQQKPGKAPKRLIYAASSLQSGVPSRFSGSGSGTEFTLTISSLQPEDFATYYCLQHNSFPWTFGQGTKVEIK | 72% | 73% | 72% | ELISA reading [2]: 2.14; ELISA reading [4]: 2.67; 6-keto Prostaglandin F1α release, Maximum Inhibition (% Inhibition), N = 1 (200 nM) (human KDR [8]): 28%; 6-keto Prostaglandin F1α release, Maximum Inhibition (% Inhibition), N = 2 (333 nM) (human KDR [8]): 55%; ELISA reading [10]: 0.988
0.087 | 0.086 | 1.9 nM | 0.073 | – | – | – | – | 1.36 | 0.187 | 0.076 | 1.9 nM | 1.6 nM | 2.3 nM | 72% | 70% | 75% | 27D10 (antibody, V domains shown, Fully human monoclonal antibody from a XenoMouse hybridoma (IgG2 or IgG4 strain), purified) VH: QLQLQESGPGLVKPSETLSLTCTVSGGSISSRSDYWGWIRQPPGKGLEWIGTIYYSGSTFYNPSLKSRVTISVDTSKNQFSLKLSSVTAADTAVYYCARQQLVLYYFDYWGQGTLVTVSS VL: not shown | 89% | 93% | 85% | % Inhibition (human KDR [14]): 15%; ELISA reading [2]: 1.48; ELISA reading [4]: 2.14; FACS Geometric Mean Fluorescence (cynomolgus KDR): 89.4; FACS Geometric Mean Fluorescence (bound VEGF165) (human KDR [15]): 111; ELISA reading [10]: 0.537
0.093 | 0.075 | 5.4 nM | 0.08 | 5.6 nM | 5.5 nM | 5.7 nM | 49% | 1.97 | 0.111 | 0.078 | 3.1 nM | 3.4 nM | 2.9 nM | 78% | 77% | 79% | 27A3 (antibody, V domains shown, Fully human monoclonal antibody from a XenoMouse hybridoma (IgG2 or IgG4 strain), purified) VH: QLQLQESGPGLVKPSETLSLTCTVSGGSISSRSDYWGWIRQPPGKGLEWIGTIYYSGDTYYNPSLKSRVTISVDTSKNQFSLKLSSVTAADTAVYYCARQQLVLYYFDYWGQGTLVTVSS VL: EIVLTQSPGTLSLSPGERATLSCRASQSVSSSYLAWYQQKPGQAPRLLIYATSNRATGIPDRFSGSGSGTDFTLTISRLEPEDFAVYYCQQHGSSPPLTFGGGTKVEIK | 95% | 95% | 94% | % Inhibition (human KDR [14]): 9%; FACS Geometric Mean Fluorescence (cynomolgus KDR): 89.7; 6-keto Prostaglandin F1α release, Maximum Inhibition (% Inhibition), N = 1 (200 nM) (human KDR [8]): 49%; 6-keto Prostaglandin F1α release, Maximum Inhibition (% Inhibition), N = 2 (333 nM) (human KDR [8]): 49%; FACS Geometric Mean Fluorescence (bound VEGF165) (human KDR [15]): 118
0.087 | 0.074 | 17.9 nM | 0.074 | 6.3 nM | 7.3 nM | 5.4 nM | 77% | 1.46 | 0.139 | 0.087 | 6.9 nM | 7.1 nM | 6.7 nM | 82% | 81% | 84% | 21H6 (antibody, V domains shown, Fully human monoclonal antibody from a XenoMouse hybridoma, purified) VH: QVQLVESGGGLVKPGGSLRLSCAASGFTFSDYYMSWIRQAPGKGLEWVSYISNSGITIYYADSVKGRFTISRDNAKNSLYLQMNSLRAGDTAVYYCAREEWYSSRWYRNFDYWGQGTLVTVSS VL: DIQMTQFSSSLSASVGDRVTITCRASQSISRYLNWYQQKPGKAPKLLIYAASSLQSGVPSRFNGSGSGTDFTLTISSLQPEDFATYYCQQSYSAPLTFGGGTKVEIK | 96% | 96% | 96% | % Inhibition (human KDR [14]): -3%; FACS Geometric Mean Fluorescence (cynomolgus KDR): 102; 6-keto Prostaglandin F1α release, Maximum Inhibition (% Inhibition), N = 1 (200 nM) (human KDR [8]): 80%; 6-keto Prostaglandin F1α release, Maximum Inhibition (% Inhibition), N = 2 (333 nM) (human KDR [8]): 75%; FACS Geometric Mean Fluorescence (bound VEGF165) (human KDR [15]): 133
